Experimental data from the supplement of paper PMC10567573.

B1: ELF3 (parent)
chain: RLVYKFGKNSSGWKEEEVLQSRN
B2: MMP1 (parent)
chain: FVRGDHRDNSPFDGPGGNLAHAFQ

Variants of: B1
Test: protein stability index of a GFP-peptide fusion (GPS, HEK-293T) (PSI 1-6); higher = more stable
Details: c terminus: native
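Also: lentivirally expressed fusions sorted by FACS into six bins by GFP to DsRed ratio, PSI derived from sequencing read proportions per bin multiplied by bin number.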

Protein stability index of substitutions, site by site:
Y4: E 3.47; F 2.35; V 2.82; I 2.12; H 3.8; Q 3.16; N 3.13; C 1.95; S 2.42; D 3.73; L 1.83; T 3.06; P 3.43; K 3.36; G 2.69; A 3.39; M 2.55; R 1.23
E16: C 1.94; D 2.15; I 3.06; G 1.5; V 1.04; F 3.9; N 2.51; Q 1.25; Y 2.91; K 2.46; H 1.25; L 3.56
L2: H 3.38; D 4.22; E 4.2; G 2.78; V 2.71; A 3.2; W 1.58; F 2.79; P 2.66; T 2.84; K 2.31; Y 1.85; I 2.45; Q 3.04; M 2.99; N 3.41; R 2.87; C 2.29; S 2.93
W13: P 4.45; I 3.91; K 3.85; S 3.78; F 3.03; N 3.67; Y 2.96; V 3; H 4.28; T 4.2; D 4.86; M 3.91; E 4.85; L 4.02; C 4.09; G 4.27; R 3.74; Q 3.29; A 4.73
R1: I 1.62; Y 1.69; T 2.18; S 1.69; E 3.17; V 1.24; P 3.7; C 2.32; M 2.4; G 2.87; H 2.72; L 1.83; N 3; Q 2.67; A 2.54; K 2.55; F 2.22
S11: D 3.33; P 2.79; I 1.54; F 1.09; E 3.01; T 2.83; V 3.33; L 1.78; K 1.6; M 1.73; R 2.05; C 1.84; Y 2.21; N 1.89; H 1.89
K8: Y 1.42; E 2.97; I 2.14; P 2.25; D 3.36; C 2.85; S 2.44; G 2.49; R 1.31; H 2.26; L 1.92; F 1.86; A 2.77; N 2.46; V 1.91; M 1.38; T 2.62
G7: H 1.8; R 2.29; M 1.81; I 1.46; T 2.31; A 1.89; W 3.57; P 2.31; N 2.64; Q 2.5; K 1.9; E 2.94; V 1.49; D 4.11; S 2.67; Y 2.41
K14: A 2.02; Y 2.28; D 3.25; H 1.41; F 2.49; R 2.43; T 2.32; I 2.25; Q 3; P 2.58; V 2.25; L 2.7; N 1.92; S 2.89; C 2.12; M 2.88; E 3.31
E17: A 2.06; N 1.6; V 1.98; G 1.93; I 2.02; S 1.13; P 2.22; K 1.3; Q 2.09; D 1.75; T 1.51; F 1.75; M 2.27; H 1.11; C 2.62
E15: C 2.49; Q 1.76; G 1.76; W 1.86; I 1.55; V 2.49; H 2.81; D 1.9; A 1.43; F 3; N 1.94; K 3.27
V3: D 4.2; R 2.75; K 2.49; M 2.38; L 1.9; P 2.63; S 2.7; Y 2.37; A 3.88; T 2.86; E 4.75; N 3.46; C 1.71; G 2.48; F 2.38; H 2.53
K5: Y 2.16; N 2.39; S 2.5; P 1.89; L 2.75; C 2.52; E 2.89; T 2.14; I 1.36; D 2.8; H 1.98; A 1.76; R 1.05; M 1.91; V 1.95; Q 2.09
G12: F 1.82; Y 2.57; V 1.79; N 1.98; A 2.37; K 1.69; W 1.88; E 2.98; P 2.46; H 2.02; L 3.23; I 1.76; S 2.5; D 3.19; Q 1.95; C 2.05; T 1.87
N9: Y 1.25; V 2.08; D 3.19; S 2.22; L 2.59; E 3.08; T 1.73; K 1.97; F 1.98; G 1.9; P 2.33; M 4.34; H 1.68; A 1.7; R 2.91; Q 1.87
F6: E 4.52; R 3.06; H 3.29; A 3.69; I 2.26; T 3.5; P 3.47; V 3.89; S 3.28; D 4.7; K 3.53; L 1.61; Y 2.45; N 3.65; Q 3.08; C 1.42; W 2.12; G 3.75
S10: K 2.23; E 2.86; D 3.25; C 2.55; T 3.02; H 2.56; A 2.64; R 1.18; G 2.11; Q 2.51; M 1.9; F 1.34; I 1.66; N 2.1; P 2.1; Y 1.56

Variants of: B2
Test: as above
Details: c terminus: a fixed tail appended

Protein stability index of substitutions, site by site:
A22: R 2.58; K 2.42; C 1.98; T 2.31; P 3.37; S 1.91; E 1.38; F 2.25; L 1.74; I 2.06; Q 1.46; M 2.4; D 2.44; V 1.53; Y 2.34; N 1.75; G 1.58; W 1.68; H 2
Q24: C 1.72; L 1.93; K 1.6; V 2.39; A 1.88; T 3.41; H 1.84; N 1.62; F 2.78; S 1.02; M 2.73; P 1.97; D 2.75; Y 3.94; G 1.99; R 1.63; E 3.81
F23: H 2.08; M 2.25; L 1.89; G 2.12; T 1.56; D 1.9; Y 2.12; N 1.73; P 2.63; Q 2.11; S 1.88; K 2.45; V 1.99; R 2.03; C 1.38; E 2.38; I 2.33; W 2.74; A 1.78
H21: Y 2.91; T 2.1; V 1.6
